Laboratory results published in IntAct's records for PubMed 25991726.

B1: Ribosome maturation protein SBDS (Homo sapiens), Q9Y3A5 (parent)
chain: MSIFTPTNQIRLTNVAVVRMKRAGKRFEIACYKNKVVGWRSGVEKDLDEVLQTHSVFVNVSKGQVAKKEDLISAFGTDDQTEICKQILTKGEVQVSDKERHTQLEQMFRDIATIVADKCVNPETKRPYTVILIERAMKDIHYSVKTNKSTKQQALEVIKQLKEKMKIERAHMRLRFILPVNEGKKLKEKLKPLIKVIESEDYGQQLEIVCLIDPGCFREIDELIKKETKGKGSLEVLNLKDVEEGDEKFE
partner: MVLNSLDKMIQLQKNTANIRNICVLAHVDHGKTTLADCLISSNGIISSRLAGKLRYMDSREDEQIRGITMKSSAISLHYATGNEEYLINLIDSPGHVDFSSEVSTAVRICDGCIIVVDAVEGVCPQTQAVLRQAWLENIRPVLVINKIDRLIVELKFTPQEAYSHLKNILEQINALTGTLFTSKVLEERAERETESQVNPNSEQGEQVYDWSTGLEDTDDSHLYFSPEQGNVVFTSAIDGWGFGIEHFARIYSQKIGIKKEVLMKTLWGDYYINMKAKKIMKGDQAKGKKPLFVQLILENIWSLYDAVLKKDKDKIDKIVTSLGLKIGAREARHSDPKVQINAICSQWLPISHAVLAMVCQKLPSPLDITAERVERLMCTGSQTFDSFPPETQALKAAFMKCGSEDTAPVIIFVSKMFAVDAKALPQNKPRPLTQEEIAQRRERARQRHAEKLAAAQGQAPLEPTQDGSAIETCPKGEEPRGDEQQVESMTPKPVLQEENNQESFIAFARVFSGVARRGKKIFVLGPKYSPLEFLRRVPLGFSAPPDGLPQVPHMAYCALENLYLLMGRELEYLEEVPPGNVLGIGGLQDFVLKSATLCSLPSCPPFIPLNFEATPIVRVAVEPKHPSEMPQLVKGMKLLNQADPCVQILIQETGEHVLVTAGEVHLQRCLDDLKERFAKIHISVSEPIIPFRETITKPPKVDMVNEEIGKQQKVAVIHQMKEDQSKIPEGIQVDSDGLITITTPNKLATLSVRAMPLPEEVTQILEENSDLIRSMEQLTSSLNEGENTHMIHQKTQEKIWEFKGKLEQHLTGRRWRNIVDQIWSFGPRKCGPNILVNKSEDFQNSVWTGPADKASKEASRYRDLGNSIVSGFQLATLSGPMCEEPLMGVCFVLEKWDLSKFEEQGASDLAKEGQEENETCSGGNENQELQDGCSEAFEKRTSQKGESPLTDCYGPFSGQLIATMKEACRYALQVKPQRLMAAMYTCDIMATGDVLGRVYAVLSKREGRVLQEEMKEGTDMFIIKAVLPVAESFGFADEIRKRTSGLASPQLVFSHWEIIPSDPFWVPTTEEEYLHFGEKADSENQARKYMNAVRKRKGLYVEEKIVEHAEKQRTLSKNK

Variants of: B1
Conditions: with efl1_human EFL1, Q7Z2Z2

Variant	effect of a mutation on the interaction
MSIFTPTNQIRLTNVAVVRMKRAGKRFEIACYKNKVVGWRSGVEKDLDEVLQTHSVFVNVSKGQVAKKEDLISAFGTDDQTEICKQILTKGEVQVSDKERHTQLEQMFRDIATIVADKCVNPETKRPYTVILIERAMKDIHYLVKTNKSTKQQALEVIKQLKEKMKIERAHMRLRFILPVNEGKKLKEKLKPLIKVIESEDYGQQLEIVCLIDPGCFREIDELIKKETKGKGSLEVLNLKDVEEGDEKFE [S143L]	decreasing interaction strength
